Literature values in PMC7088015.
Where two headings read alike, the source gives them in different places.

What was measured:
Conditions in all cases: free dipeptide in solution (not further stated)
Nterm [1] = tested on: Nterm
Cterm = tested on: Cterm
Nterm [2] = assay: not stated
[3] = tested on: His2 (position 1, -----H-----); assay: not stated
[4] = tested on: Cterm (position 1, -----H-----); assay: not stated

Q: For “Anserine (beta-alanyl-1-methyl-L-histidine) (natural dipeptide of skeletal muscle of birds, fish and cattle (first identified in goose muscle); source of the titrated material not stated)”, which pKa (Nterm [1]) is on record?
A: 9.49

Q: And the pKa (Cterm)?
A: 2.64

Q: Which results are given for “Carnosine (beta-alanyl-L-histidine) (natural dipeptide of vertebrate skeletal muscle (discovered in cattle, Bos taurus); source of the titrated material not stated)”?
A: pKa (Nterm [2]): 9.66; pKa [3]: 6.83; pKa [4]: 2.77
